Legend:
[1] = target: Clostridium difficile toxin B (TcdB) (Clostridium difficile, UniProt P18177); assay: flow cytometry on cells
[2] = target: soluble biotinylated TcdB fragment (1401-1616) (Clostridioides difficile VP10463, UniProt P18177, biotin); assay: flow cytometry on cells
Sequence of soluble biotinylated TcdB fragment (1401-1616) (P18177 1401-1616): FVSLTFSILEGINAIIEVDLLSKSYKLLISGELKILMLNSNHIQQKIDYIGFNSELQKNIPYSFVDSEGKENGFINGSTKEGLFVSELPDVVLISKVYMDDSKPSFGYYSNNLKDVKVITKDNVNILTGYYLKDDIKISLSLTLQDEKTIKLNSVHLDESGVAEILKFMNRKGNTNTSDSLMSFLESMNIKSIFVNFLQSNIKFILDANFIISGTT

Sequence of Clostridium difficile toxin B (TcdB) (P18177 whole entry, the tested form may be a part): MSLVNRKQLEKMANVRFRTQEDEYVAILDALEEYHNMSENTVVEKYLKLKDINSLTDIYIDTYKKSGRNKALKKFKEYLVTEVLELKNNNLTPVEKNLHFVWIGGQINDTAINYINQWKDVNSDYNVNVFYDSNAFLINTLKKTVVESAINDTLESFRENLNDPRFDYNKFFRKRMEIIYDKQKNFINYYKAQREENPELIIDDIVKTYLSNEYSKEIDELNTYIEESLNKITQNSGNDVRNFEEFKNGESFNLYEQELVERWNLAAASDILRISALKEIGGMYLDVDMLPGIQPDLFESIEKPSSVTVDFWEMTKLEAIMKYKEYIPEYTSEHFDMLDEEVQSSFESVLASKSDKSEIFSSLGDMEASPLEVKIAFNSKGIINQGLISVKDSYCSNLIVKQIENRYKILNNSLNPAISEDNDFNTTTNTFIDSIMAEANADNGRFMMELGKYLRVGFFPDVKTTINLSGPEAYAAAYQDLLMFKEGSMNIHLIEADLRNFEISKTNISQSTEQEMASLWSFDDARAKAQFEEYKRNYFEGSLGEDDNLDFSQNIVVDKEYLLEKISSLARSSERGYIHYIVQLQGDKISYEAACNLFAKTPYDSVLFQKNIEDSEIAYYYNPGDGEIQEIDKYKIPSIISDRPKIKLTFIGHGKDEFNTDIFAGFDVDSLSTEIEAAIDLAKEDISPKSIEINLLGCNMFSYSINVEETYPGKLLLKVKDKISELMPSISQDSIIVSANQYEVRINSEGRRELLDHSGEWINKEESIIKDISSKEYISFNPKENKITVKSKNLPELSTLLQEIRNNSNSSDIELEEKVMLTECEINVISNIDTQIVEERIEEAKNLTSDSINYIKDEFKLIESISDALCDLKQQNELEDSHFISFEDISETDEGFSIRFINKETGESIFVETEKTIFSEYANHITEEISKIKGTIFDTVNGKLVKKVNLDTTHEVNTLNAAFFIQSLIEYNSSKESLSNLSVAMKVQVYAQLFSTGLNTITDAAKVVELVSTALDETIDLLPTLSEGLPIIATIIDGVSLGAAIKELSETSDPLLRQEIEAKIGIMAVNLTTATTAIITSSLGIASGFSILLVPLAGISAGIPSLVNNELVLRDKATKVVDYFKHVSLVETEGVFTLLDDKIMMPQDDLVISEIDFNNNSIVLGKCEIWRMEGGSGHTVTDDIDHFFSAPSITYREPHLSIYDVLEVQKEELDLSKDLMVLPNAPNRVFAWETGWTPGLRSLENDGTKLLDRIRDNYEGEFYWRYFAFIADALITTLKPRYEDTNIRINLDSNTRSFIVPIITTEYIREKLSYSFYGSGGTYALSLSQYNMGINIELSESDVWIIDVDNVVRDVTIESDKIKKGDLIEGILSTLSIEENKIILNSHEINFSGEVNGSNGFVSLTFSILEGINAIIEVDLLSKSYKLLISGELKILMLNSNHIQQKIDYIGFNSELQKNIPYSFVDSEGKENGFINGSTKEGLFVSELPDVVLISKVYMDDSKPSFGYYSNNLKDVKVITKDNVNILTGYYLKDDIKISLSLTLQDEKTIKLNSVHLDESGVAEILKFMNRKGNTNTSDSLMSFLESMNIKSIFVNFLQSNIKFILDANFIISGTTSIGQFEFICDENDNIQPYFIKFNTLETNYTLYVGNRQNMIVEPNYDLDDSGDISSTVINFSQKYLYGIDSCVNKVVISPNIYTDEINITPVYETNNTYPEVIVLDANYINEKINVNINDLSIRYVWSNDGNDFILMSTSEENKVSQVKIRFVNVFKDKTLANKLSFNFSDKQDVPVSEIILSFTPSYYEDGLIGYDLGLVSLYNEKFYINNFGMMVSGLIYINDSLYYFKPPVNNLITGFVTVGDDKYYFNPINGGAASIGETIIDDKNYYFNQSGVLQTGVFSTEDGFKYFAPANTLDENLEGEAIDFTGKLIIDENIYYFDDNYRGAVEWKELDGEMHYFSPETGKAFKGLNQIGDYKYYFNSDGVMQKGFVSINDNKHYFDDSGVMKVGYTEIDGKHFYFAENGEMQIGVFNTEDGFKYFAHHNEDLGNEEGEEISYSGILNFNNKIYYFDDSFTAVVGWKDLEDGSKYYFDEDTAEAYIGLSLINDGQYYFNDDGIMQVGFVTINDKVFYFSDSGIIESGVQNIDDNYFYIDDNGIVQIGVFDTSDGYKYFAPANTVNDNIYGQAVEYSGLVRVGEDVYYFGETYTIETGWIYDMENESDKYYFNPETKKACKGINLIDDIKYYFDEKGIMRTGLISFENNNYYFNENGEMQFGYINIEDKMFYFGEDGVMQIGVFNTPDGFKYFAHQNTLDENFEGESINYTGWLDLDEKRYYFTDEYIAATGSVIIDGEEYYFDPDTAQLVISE

B1: scFv4-C-Myc construct displayed on yeast (scFv, V domains shown)
VH: EVQLVESGGGLVQPGGSLRLSCAASGFDLKEKYIHWVRQAPGKGLEWVARINVKTGSTRYADSVKGRFTISADTSKNTAYLQMNSLRAEDTAVYYCSRENRFGALTVWGQGTLVTVSS
VL: DIQMTQSPSSLSASVGDRVTITCTTSSYVPMLVSWYQQKPGKAPKLLIYSSVIRAPGVPSRFSGSRSGTDFTLTISSLQPEDFATYYCSVLQKDGNLVFGQGTKVEIK
binding result [1]: binds
binding result [2]: binds

Source: paper PMC10983868 (bioRxiv, 2025)
